# Measurements: patent publication US20230013244A1 (BioIncept, LLC, priority 2014, published 2023)
# Key:
# [1] = target: Actin, cytoplasmic 1 (human) (UniProt P60709); assay: PIF affinity column + LC-MS/MS, CD8+ cell lysate
# [2] = target: Cartilage oligomeric matrix protein (human) (UniProt P49747); assay: PIF affinity column + LC-MS/MS, CD8+ cell lysate
# Cofilin-1 (human) [3] = target: Cofilin-1 (human) (UniProt P23528); assay: PIF affinity column + LC-MS/MS, CD8+ cell lysate
# [4] = target: Hepatoma-derived growth factor (human) (UniProt P51858); assay: PIF affinity column + LC-MS/MS, CD8+ cell lysate
# [5] = target: Isoform 2 of Protein SET (human) (UniProt Q01105); assay: PIF affinity column + LC-MS/MS, CD8+ cell lysate
# Sequence of Isoform 2 of Protein SET (human) (Q01105 other isoform, or with tags, fused parts or gaps limits assumed): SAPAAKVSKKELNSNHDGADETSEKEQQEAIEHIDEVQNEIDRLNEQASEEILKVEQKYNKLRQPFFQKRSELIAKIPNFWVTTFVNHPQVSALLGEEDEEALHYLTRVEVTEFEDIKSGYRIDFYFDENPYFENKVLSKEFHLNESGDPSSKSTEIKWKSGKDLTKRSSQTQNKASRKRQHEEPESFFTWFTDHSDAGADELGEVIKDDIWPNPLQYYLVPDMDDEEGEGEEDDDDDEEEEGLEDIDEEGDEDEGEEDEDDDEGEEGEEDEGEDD
# [6] = target: Nuclease-sensitive element-binding protein 1 (Fragment) (human) (UniProt P67809); assay: PIF affinity column + LC-MS/MS, CD8+ cell lysate
# Nucleolin (human) = Nucleolin (human) (UniProt P19338); assay: PIF affinity column + LC-MS/MS, CD8+ cell lysate
# [7] = target: Serine/arginine-rich-splicing factor 1 (human) (UniProt Q07955); assay: PIF affinity column + LC-MS/MS, CD8+ cell lysate
# Serum albumin (human) [8] = target: Serum albumin (human) (UniProt P02768); assay: PIF affinity column + LC-MS/MS, CD8+ cell lysate
# Talin-1 (human) = Talin-1 (human) (UniProt Q9Y490); assay: PIF affinity column + LC-MS/MS, CD8+ cell lysate
# Sequence of Talin-1 (human) (Q9Y490 whole entry): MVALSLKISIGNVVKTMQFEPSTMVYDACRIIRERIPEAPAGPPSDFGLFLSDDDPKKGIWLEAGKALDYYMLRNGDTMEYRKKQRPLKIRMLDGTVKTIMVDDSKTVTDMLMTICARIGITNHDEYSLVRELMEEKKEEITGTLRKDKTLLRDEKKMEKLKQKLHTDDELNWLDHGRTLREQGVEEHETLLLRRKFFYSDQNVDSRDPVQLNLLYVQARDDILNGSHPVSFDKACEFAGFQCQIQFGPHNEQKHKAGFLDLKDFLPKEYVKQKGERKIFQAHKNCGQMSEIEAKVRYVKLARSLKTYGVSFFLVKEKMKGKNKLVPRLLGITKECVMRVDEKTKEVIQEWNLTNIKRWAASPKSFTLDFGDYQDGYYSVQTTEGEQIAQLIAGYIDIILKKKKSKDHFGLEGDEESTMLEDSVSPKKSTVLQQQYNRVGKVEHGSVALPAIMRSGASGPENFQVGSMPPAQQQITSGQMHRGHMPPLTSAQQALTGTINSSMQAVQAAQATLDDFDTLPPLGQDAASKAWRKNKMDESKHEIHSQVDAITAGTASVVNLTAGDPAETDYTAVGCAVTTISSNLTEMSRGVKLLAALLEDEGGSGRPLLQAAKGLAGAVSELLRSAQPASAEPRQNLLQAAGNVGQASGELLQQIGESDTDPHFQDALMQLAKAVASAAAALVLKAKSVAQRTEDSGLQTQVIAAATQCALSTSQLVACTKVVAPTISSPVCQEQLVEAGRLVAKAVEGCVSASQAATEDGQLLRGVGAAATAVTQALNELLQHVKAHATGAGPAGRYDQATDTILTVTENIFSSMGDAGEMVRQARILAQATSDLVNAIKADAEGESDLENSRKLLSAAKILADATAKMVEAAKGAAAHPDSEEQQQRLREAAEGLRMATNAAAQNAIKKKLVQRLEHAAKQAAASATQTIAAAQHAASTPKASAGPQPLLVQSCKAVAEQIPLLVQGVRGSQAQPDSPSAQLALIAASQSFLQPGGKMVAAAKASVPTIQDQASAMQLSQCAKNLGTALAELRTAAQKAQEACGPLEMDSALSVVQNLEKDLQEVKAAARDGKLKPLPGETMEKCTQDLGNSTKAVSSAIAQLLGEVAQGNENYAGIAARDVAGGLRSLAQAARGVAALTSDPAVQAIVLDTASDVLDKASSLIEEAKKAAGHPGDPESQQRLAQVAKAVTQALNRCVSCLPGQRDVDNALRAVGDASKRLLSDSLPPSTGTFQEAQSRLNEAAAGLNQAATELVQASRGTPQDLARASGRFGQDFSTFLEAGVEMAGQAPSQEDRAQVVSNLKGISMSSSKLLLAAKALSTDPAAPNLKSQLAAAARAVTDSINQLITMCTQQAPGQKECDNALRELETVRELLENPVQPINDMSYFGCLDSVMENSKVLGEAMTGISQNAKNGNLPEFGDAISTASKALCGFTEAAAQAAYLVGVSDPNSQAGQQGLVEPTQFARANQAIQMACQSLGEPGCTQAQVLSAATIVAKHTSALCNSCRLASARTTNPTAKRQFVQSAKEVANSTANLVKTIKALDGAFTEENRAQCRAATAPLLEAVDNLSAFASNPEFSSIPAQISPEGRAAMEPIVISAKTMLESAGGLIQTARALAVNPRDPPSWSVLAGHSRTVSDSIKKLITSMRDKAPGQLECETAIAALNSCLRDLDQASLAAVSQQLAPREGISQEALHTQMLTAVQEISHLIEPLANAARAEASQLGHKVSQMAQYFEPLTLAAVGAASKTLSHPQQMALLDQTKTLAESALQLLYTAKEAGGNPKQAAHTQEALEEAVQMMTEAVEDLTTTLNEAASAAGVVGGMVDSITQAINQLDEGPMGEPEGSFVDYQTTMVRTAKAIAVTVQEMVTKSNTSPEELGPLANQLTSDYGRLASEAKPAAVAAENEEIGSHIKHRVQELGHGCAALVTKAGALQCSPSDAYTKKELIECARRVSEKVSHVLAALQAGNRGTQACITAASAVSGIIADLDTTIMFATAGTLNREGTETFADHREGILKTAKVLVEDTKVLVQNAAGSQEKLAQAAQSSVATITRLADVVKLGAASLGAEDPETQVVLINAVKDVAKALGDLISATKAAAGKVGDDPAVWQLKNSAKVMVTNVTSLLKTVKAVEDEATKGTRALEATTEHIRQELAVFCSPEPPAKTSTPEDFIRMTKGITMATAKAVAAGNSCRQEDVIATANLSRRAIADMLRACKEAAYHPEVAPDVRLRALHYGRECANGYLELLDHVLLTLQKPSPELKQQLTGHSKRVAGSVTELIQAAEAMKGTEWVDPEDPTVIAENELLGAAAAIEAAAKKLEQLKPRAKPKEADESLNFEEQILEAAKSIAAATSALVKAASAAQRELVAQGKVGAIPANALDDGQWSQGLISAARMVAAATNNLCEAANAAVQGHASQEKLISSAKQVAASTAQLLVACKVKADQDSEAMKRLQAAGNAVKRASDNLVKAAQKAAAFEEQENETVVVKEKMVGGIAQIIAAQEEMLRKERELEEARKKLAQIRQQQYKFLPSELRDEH
# Thymosin alpha-1 (human) [9] = target: Thymosin alpha-1 (human) (UniProt P06454); assay: PIF affinity column + LC-MS/MS, CD8+ cell lysate
# Sequence of Thymosin alpha-1 (human) (P06454 other isoform, or with tags, fused parts or gaps limits assumed): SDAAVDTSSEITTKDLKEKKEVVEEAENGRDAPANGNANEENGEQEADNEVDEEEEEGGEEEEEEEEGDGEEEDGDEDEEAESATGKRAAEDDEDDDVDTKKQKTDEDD
# [10] = target: Tubulin alpha-1C chain (human) (UniProt Q9BQE3); assay: PIF affinity column + LC-MS/MS, CD8+ cell lysate
# Sequence of Tubulin alpha-1C chain (human) (Q9BQE3 whole entry): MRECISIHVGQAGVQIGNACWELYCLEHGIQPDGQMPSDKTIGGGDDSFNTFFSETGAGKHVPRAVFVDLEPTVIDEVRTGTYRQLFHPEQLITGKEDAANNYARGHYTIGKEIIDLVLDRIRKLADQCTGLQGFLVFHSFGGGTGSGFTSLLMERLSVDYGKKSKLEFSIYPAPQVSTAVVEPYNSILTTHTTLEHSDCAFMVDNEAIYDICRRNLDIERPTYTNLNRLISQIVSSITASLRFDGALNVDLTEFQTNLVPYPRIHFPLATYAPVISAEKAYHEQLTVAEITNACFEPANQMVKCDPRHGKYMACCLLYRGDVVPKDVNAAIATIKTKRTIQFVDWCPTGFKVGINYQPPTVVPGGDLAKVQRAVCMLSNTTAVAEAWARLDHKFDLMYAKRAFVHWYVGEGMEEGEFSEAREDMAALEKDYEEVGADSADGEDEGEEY
# [11] = target: Acidic leucine-rich nuclear phosphoprotein 32 family member A (human) (UniProt P39687); assay: PIF affinity column + LC-MS/MS, CD4+ cell lysate
# Sequence of Acidic leucine-rich nuclear phosphoprotein 32 family member A (human) (P39687 whole entry): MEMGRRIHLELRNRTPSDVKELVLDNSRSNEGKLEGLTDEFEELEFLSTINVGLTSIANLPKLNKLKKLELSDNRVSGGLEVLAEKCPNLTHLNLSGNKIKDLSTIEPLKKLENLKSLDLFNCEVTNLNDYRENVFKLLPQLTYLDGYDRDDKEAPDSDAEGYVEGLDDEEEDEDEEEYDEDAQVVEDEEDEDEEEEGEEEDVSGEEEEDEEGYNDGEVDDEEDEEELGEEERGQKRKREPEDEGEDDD
# [12] = target: Actin, cytoplasmic 1 (human) (UniProt P60709); assay: PIF affinity column + LC-MS/MS, CD4+ cell lysate
# Calreticulin (human) [13] = target: Calreticulin (human) (UniProt P27797); assay: PIF affinity column + LC-MS/MS, CD4+ cell lysate
# [14] = target: Cartilage oligomeric matrix protein (human) (UniProt P49747); assay: PIF affinity column + LC-MS/MS, CD4+ cell lysate
# Cofilin-1 (human) [15] = target: Cofilin-1 (human) (UniProt P23528); assay: PIF affinity column + LC-MS/MS, CD4+ cell lysate
# [16] = target: Glucosidase 2 subunit beta (human) (UniProt P14314); assay: PIF affinity column + LC-MS/MS, CD4+ cell lysate
# [17] = target: Isoform 2 of Heat shock protein HSP 90-alpha (human) (UniProt P07900); assay: PIF affinity column + LC-MS/MS, CD4+ cell lysate
# [18] = target: Isoform 2 of Protein SET (human) (UniProt Q01105); assay: PIF affinity column + LC-MS/MS, CD4+ cell lysate
# [19] = target: Serine/arginine-rich-splicing factor 2 (human) (UniProt Q01130); assay: PIF affinity column + LC-MS/MS, CD4+ cell lysate
# Sequence of Serine/arginine-rich-splicing factor 2 (human) (Q01130 2-221 limits assumed): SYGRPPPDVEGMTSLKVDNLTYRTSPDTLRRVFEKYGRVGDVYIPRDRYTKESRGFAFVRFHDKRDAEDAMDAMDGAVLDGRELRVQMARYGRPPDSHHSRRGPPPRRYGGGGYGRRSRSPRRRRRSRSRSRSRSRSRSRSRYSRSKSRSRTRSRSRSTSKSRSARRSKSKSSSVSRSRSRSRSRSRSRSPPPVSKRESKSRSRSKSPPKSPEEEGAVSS
# Serum albumin (human) [20] = target: Serum albumin (human) (UniProt P02768); assay: PIF affinity column + LC-MS/MS, CD4+ cell lysate
# Thymosin alpha-1 (human) [21] = target: Thymosin alpha-1 (human) (UniProt P06454); assay: PIF affinity column + LC-MS/MS, CD4+ cell lysate
# [22] = target: Tropomyosin alpha-4 chain (human) (UniProt P67936); assay: PIF affinity column + LC-MS/MS, CD4+ cell lysate
# Sequence of Tropomyosin alpha-4 chain (human) (P67936 2-248 limits assumed): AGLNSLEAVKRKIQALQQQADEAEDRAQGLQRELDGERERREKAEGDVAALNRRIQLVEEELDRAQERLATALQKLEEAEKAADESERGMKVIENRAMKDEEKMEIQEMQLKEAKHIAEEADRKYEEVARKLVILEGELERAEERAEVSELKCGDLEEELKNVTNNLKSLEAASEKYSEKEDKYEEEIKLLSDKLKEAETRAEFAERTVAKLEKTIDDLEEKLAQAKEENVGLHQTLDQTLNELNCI
# Calreticulin (human) [23] = target: Calreticulin (human) (UniProt P27797); assay: PIF affinity column + LC-MS/MS, CD14+ cell lysate
# Hornerin (human) = Hornerin (human) (UniProt Q86YZ3); assay: PIF affinity column + LC-MS/MS, CD14+ cell lysate
# [24] = target: Isoform 2 of Heat shock protein HSP 90-alpha (human) (UniProt P07900); assay: PIF affinity column + LC-MS/MS, CD14+ cell lysate
# Sequence of Cofilin-1 (human) (P23528 2-166 limits assumed): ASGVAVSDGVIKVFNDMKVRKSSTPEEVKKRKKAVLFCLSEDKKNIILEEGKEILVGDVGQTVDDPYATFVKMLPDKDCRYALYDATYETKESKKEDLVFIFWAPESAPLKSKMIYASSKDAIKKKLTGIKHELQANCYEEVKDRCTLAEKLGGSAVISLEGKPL
# Sequence of Cartilage oligomeric matrix protein (human) (P49747 21-757 limits assumed): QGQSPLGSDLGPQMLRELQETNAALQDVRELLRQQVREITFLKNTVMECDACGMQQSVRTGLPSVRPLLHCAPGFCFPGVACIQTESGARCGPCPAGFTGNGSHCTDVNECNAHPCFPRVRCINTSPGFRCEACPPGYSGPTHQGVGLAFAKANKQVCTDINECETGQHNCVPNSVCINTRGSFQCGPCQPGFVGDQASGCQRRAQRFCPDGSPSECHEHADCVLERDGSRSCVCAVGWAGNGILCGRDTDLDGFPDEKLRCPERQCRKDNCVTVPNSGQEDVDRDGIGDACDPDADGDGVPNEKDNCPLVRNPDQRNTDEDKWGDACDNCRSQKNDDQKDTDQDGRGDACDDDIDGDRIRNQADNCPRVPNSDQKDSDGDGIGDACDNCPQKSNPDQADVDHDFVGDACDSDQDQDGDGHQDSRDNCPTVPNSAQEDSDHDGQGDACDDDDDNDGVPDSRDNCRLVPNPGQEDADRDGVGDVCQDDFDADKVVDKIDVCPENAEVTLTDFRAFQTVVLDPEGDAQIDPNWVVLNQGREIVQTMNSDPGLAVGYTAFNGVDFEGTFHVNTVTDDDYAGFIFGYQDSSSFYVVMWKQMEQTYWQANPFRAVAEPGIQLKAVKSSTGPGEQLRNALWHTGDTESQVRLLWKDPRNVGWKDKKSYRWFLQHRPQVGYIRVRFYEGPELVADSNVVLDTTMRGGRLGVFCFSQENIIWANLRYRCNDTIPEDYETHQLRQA
substance,measurement,setting,value
PIF-resin (PIF15 affinity ligand on agarose) (peptide),Ave,[1],3
same,Inject 1,[1],3
same,Inject 2,[1],3
same,Inject 3,[1],3
same,Ave,[2],4
same,Inject 1,[2],4
same,Inject 2,[2],4
same,Inject 3,[2],5
same,Ave,Cofilin-1 (human) [3],1
same,Inject 1,Cofilin-1 (human) [3],1
same,Inject 2,Cofilin-1 (human) [3],1
same,Inject 3,Cofilin-1 (human) [3],1
same,Ave,[4],1
same,Inject 1,[4],1
same,Inject 2,[4],1
same,Inject 3,[4],1
same,Ave,[5],1
same,Inject 1,[5],1
same,Inject 2,[5],1
same,Inject 3,[5],1
same,Ave,[6],1
same,Inject 1,[6],1
same,Inject 2,[6],1
same,Inject 3,[6],1
same,Ave,Nucleolin (human),1
same,Inject 1,Nucleolin (human),1
same,Inject 2,Nucleolin (human),1
same,Inject 3,Nucleolin (human),1
same,Ave,[7],1
same,Inject 1,[7],1
same,Inject 2,[7],1
same,Inject 3,[7],1
same,Inject 3,Serum albumin (human) [8],8
same,Ave,Talin-1 (human),1
same,Inject 1,Talin-1 (human),1
same,Inject 2,Talin-1 (human),1
same,Inject 3,Talin-1 (human),1
same,Inject 3,Thymosin alpha-1 (human) [9],4
same,Ave,[10],1
same,Inject 1,[10],1
same,Inject 2,[10],1
same,Inject 3,[10],1
same,Ave,[11],1
same,Inject 1,[11],1
same,Inject 2,[11],1
same,Inject 3,[11],1
same,Ave,[12],2
same,Inject 1,[12],2
same,Inject 2,[12],2
same,Inject 3,[12],2
same,Ave,Calreticulin (human) [13],4
same,Inject 1,Calreticulin (human) [13],4
same,Inject 2,Calreticulin (human) [13],4
same,Inject 3,Calreticulin (human) [13],4
same,Ave,[14],10
same,Inject 1,[14],10
same,Inject 2,[14],10
same,Inject 3,[14],11
same,Ave,Cofilin-1 (human) [15],1
same,Inject 1,Cofilin-1 (human) [15],1
same,Inject 2,Cofilin-1 (human) [15],1
same,Inject 3,Cofilin-1 (human) [15],1
same,Ave,[16],1
same,Inject 1,[16],1
same,Inject 2,[16],1
same,Inject 3,[16],1
same,Ave,[17],4
same,Inject 1,[17],4
same,Inject 2,[17],4
same,Inject 3,[17],4
same,Ave,[18],4
same,Inject 2,[18],4
same,Inject 3,[18],4
same,Inject 1,[19],1
same,Ave,Serum albumin (human) [20],8
same,Inject 1,Serum albumin (human) [20],4
same,Inject 3,Serum albumin (human) [20],12
same,Ave,Thymosin alpha-1 (human) [21],5
same,Inject 1,Thymosin alpha-1 (human) [21],4
same,Inject 2,Thymosin alpha-1 (human) [21],5
same,Ave,[22],4
same,Inject 1,[22],4
same,Inject 2,[22],4
same,Inject 3,[22],4
same,Inject 2,Calreticulin (human) [23],4
same,Ave,Hornerin (human),1
same,Inject 1,Hornerin (human),1
same,Inject 2,Hornerin (human),0
same,Ave,[24],1
same,Inject 1,[24],1
same,Inject 3,[24],1
